This is an account of results in article PMC3266934, “The Murine Coronavirus Hemagglutinin-esterase Receptor-binding Site: A Major Shift in Ligand Specificity through Modest Changes in Architecture” (PLoS Pathogens, 2012).

The series deals with the molecule itself. The experiment in a line: crystal structure; crystals of the thrombin-released ectodomain, space group P2(1)2(1)2(1), two HE molecules in the asymmetric unit; free HE (2.1 Å) and HE^0 soaked with a sialic acid receptor analogue (2.5 Å); 0.2 M KH2PO4, 0.2 M sodium malonate, 15% PEG3350, 18°C.

B1: MHV-S HE ectodomain (mouse hepatitis virus strain S hemagglutinin-esterase, residues 25-403), released from HE-Fc by thrombin cleavage (domain or fragment)
chain: FNEPLNIVSHLNDDWFLFGDSRSDCTYVENNGHPKLDWLDLDPKLCNSGRISAKSGNSLFRSFHFIDFYNYSGEGDQVIFYEGVNFSPSHGFKCLAYGDNKRWMGNKARFYARVYEKMAQYRSLSFVNVSYAYGGNAKPTSICKDKTLTLNNPTFISKESNYVDYYYESEANFTLQGCDEFIVPLCVFNGHSKGSSSDPANKYYTDSQSYYNMDTGVLYGFNSTLDVGNTVQNPGLDLTCRYLALTPGNYKAVSLEYLLSLPSKAICLRKPKSFMPVQVVDSRWNSTRQSDNMTAVACQLPYCFFRNTSADYSGGTHDVHHGDFHFRQLLSGLLYNVSCIAQQGAFVYNNVSSSWPAYGYGHCPTAANIGYMAPVCIYD
notes: also called free MHV-S HE; not shown: Fc (human IgG1), C-terminal, cleaved
Take B1: the binding result is reported as “binds”.

B2: MHV-S HE^0 ectodomain (esterase-inactive, Ser45 replaced by Ala, residues 25-403), released from HE^0-Fc by thrombin cleavage (domain or fragment)
chain: FNEPLNIVSHLNDDWFLFGDARSDCTYVENNGHPKLDWLDLDPKLCNSGRISAKSGNSLFRSFHFIDFYNYSGEGDQVIFYEGVNFSPSHGFKCLAYGDNKRWMGNKARFYARVYEKMAQYRSLSFVNVSYAYGGNAKPTSICKDKTLTLNNPTFISKESNYVDYYYESEANFTLQGCDEFIVPLCVFNGHSKGSSSDPANKYYTDSQSYYNMDTGVLYGFNSTLDVGNTVQNPGLDLTCRYLALTPGNYKAVSLEYLLSLPSKAICLRKPKSFMPVQVVDSRWNSTRQSDNMTAVACQLPYCFFRNTSADYSGGTHDVHHGDFHFRQLLSGLLYNVSCIAQQGAFVYNNVSSSWPAYGYGHCPTAANIGYMAPVCIYD
notes: not shown: Fc (human IgG1), C-terminal, cleaved
Regarding B2, the binding result is “binds”.
